{
  "source": "paper PMC8227800",
  "origin": "cited, not measured here",
  "biological_target": "Cdh2 (Danio rerio) (UniProt Q90275)",
  "data": [
    {"substance": "Cdh2 (from UniProt Q90275)", "values": [
      {"measurement": "Kd", "result": 200, "unit": "nM"}
    ]}
  ]
}
